Experimental data as given in publication PMC3961690.
Where “and” joins values, the source holds several entries; their conditions need not be identical. Identical values can stand only once. Like-named read-outs stand apart in the source and are kept apart here.

Experiments:
Asp455 = Asp455 (UniProt position 474, KPVMLDLYADW); experiment: NMR; details: 298 K, isolated domain, folded
Cys461 = Cys461 (UniProt position 480, LYADWCVACKE); experiment: NMR; details: 298 K, isolated domain, folded
Cys32 = Cys32 (UniProt position 32, FSATWCGPCKM); details: reduced human thioredoxin; cited from earlier work
Asp26 = Asp26 (UniProt position 26, KLVVVDFSATW); details: cited from earlier work
Cys69 = Cys69 (UniProt position 69, FGDYKCPSCKV); details: cited from earlier work
Cys30 = Cys30 (UniProt position 49, FFSFFCPHCYQ); details: cited from earlier work
[1] = not stated, 1 mM protein, oxidised (Cys-461-Cys-464 disulfide)
[2] = oxidised (Cys-461-Cys-464 disulfide)
[3] = not stated, 1 mM protein, reduced (dithiol)

Q: Which results are given for “DsbD C-terminal domain, Q488A variant (Q488A-cDsbD) (Escherichia coli; Q488A)”?
A: pKa (Asp455; [1]): 7.7 and 7.5; pKa (Asp455; [2]): 8.0 ± 0.3

Q: For “DsbD C-terminal domain, Q488K variant (Q488K-cDsbD) (Escherichia coli; Q488K)”, which pKa (Cys461; not stated (pH adjusted with 0.1 M DCl or NaOD), 1 mM protein, reduced (Cys-461/Cys-464 dithiol)) is on record?
A: Its pKa is 10.3 and 10.5 and 10.4.

Q: And the pKa (Cys461; [3])?
A: Its pKa is 10.9.

Q: What about the pKa (Cys461; reduced (dithiol)) of the same substance?
A: Its pKa is 10.5 ± 0.2.

Q: What about the pKa (Asp455; [1]) of the same substance?
A: The pKa was 8.0.

Q: And the pKa (Asp455; [3])?
A: The pKa was 7.2 and 7.1.

Q: And the pKa (Asp455; [2])?
A: The pKa was 8.1 ± 0.2.

Q: And the pKa (Asp455; reduced (dithiol))?
A: Its pKa is 7.5 ± 0.4.

Q: Which results are given for “Thioredoxin (Trx1), human (Homo sapiens)”?
A: pKa (Cys32): 6.3; pKa (Asp26; oxidised human thioredoxin): 8.1; pKa (Asp26; reduced human thioredoxin): 9.9

Q: Which pKa (Cys69) does the source give for “Disulfide bond formation protein D (BdbD) (Bacillus subtilis)” here?
A: The pKa was “less than 4.5”.

Q: Which pKa (Cys30) does the source give for “Thiol:disulfide interchange protein DsbA (Escherichia coli)” here?
A: Its pKa is 3.5.
